Data as given in patent publication US20190358242A1, “COMPOSITIONS, KITS, AND METHODS TO INDUCE ACQUIRED CYTORESISTANCE USING STRESS PROTEIN INDUCERS” (FRED HUTCHINSON CANCER RESEARCH CENTER, priority 2017, published 2019).

Experiments:
maleate model of AKI = assay: Maleate model of AKI (800 mg/Kg), FeS/SnPP and FeS/B12; assay type: in vivo, CD-1 mice; details: IV 18 hrs before 800 mg/Kg maleate; 18 hrs post maleate; 1 mg FeS, 1 μmole SnPP or B12
Description: Effects of Fe sucrose (FeS)/tin protoporphyrin (SnPP) on AKI severity. Maleate model of AKI. When injected into rodents, maleate undergoes relatively selective proximal tubule cell uptake via organic anion transporters. Once intracellular accumulation occurs, maleate is a preferred substrate for succinyl-CoA:3-oxoacid CoA transferase. […] Ample levels of CoA are essential for fatty acid “activation”, allowing for their subsequent metabolism through the Krebs cycle, yielding ATP. In the absence of this process, proximal tubule ATP depletion and cell injury result. Additionally, maleate conjugates the sulfhydryl group of glutathione (GSH), culminating in GSH depletion and potential oxidant tubular stress.
The following experiment tested whether FeS, SnPP or combined FeS+SnPP can mitigate this form of acute kidney injury (AKI). Twenty seven mice were subjected to 200 μL IV tail injections of one of the following: 1) vehicle (phosphate buffered saline, PBS; n, 10); 2) 1 mg FeS (American Regent (Shirley, N.Y.; n, 3); 3) 1 μmole SnPP (Frontier Scientific, Logan, Utah; n 7), or FeS+SnPP, n, 7). […] The severity of kidney injury was assessed by determining plasma blood urea nitrogen (BUN) and plasma creatinine (PCr) concentrations.
Maleate model of AKI. […] The severity of AKI was determined 18 hrs post maleate injection by terminal BUN and PCr assessments.

HO-1 protein [1] = assay: Renal cortical HO-1 protein (ELISA) after FeS, SnPP, B12; assay type: in vivo, CD-1 mice
Procedure: Effects of FeS, SnPP, and B12 on renal cortical induction of heme oxygenase 1(HO-1). The following experiments assessed the effects of FeS, SnPP, and B12 on the possible induction of the cytoprotective protein HO-1. To this end, mice were injected with each of these agents, as noted above. Either 4 or 18 hrs later, they were anesthetized and the kidneys were removed through a midline abdominal incision. The renal cortices were dissected on ice and then extracted for protein and mRNA. The samples were then assayed for HO-1 protein by ELISA, and HO-1 mRNA by RT-PCR, factored by GAPDH levels. Five normal mice provided control values.

ferritin heavy chain = assay: Kidney ferritin heavy chain expression (Western blotting); assay type: in vivo, mice; details: 18 hrs following 1 umole SnPP, 1 mg FeS or combined
Procedure: FIG. 32. Ferritin heavy chain expression (as determined by Western blotting) in kidneys 18 hrs following 1 umole tin protoporphyrin (SnPP), 1 mg Fe sucrose (FeS) or combined SnPP+FeS treatment.

HO-1 protein [2] = assay: Liver HO-1 protein (ELISA); assay type: in vivo, CD-1 mice; design: unit not given beside the values
Procedure: (§1) Thirty-two mice were divided into 4 equal groups: (1) control mice; (2) mice treated with 1 mg of N-Mgb injection (as a bolus through the tail vein); (3) mice treated with […] of SnPP (via tail vein); and (4) mice treated with combined N-Mgb 1 SnPP. After either 4 hours (n=16) or 18 hours (n=16), the mice were deeply anesthetized with pentobarbital (50 mg/kg), the abdomen was opened through a midline abdominal incision, and the kidneys were removed. To determine potential effects on extrarenal organs, a liver lobe and the heart were also removed. The tissues were iced and then extracted for protein and RNA (RNeasy Plus Mini; Qiagen, Valencia, Calif.) and subjected to enzyme linked immunosorbent assay (ELISA) and reverse transcriptase polymerase chain reaction (RT-PCR) for HO-1, haptoglobin, and IL-10 protein and messenger RNAs (mRNAs). Zager et al. J Am Soc Nephrol 2014; 25:998-1012; Zager et al. Am J Physiol 2012; 303:F139-48. As an assessment of renal function, control mice and the 18 hour after N-Mgb+SnPP-treated mice had blood urea nitrogen (BUN) and plasma creatinine levels measured. Additionally, transverse 10% formalin fixed kidney sections ([…]) were cut and stained with hematoxylin and eosin (H&E) and periodic acid Schiff (PAS) to further assess potential injury.

IL-10 mRNA [3] = assay: Liver IL-10 mRNA (RT-PCR); assay type: in vivo, CD-1 mice
Procedure: as §1

HO-1 mRNA [4] = assay: Cardiac HO-1 mRNA (RT-PCR); assay type: in vivo, CD-1 mice
Procedure: as §1

HO-1 protein [5] = assay: Kidney HO-1 protein (ELISA); assay type: in vivo, CD-1 mice
Procedure: as §1

HO-1 mRNA [6] = assay: Kidney HO-1 mRNA (RT-PCR); assay type: in vivo, CD-1 mice
Procedure: as §1

IL-10 mRNA [7] = assay: Cardiac IL-10 mRNA (RT-PCR); assay type: in vivo, CD-1 mice
Procedure: as §1

HO-1 mRNA [8] = assay: Liver HO-1 mRNA (RT-PCR); assay type: in vivo, CD-1 mice
Procedure: as §1

haptoglobin mRNA [9] = assay: Cardiac haptoglobin mRNA (RT-PCR); assay type: in vivo, CD-1 mice
Procedure: as §1

haptoglobin protein [10] = assay: Kidney haptoglobin protein (ELISA); assay type: in vivo, CD-1 mice
Procedure: as §1

IL-10 protein [11] = assay: Kidney IL-10 protein (ELISA); assay type: in vivo, CD-1 mice
Procedure: as §1

IL-10 protein [12] = assay: Liver IL-10 protein (ELISA); assay type: in vivo, CD-1 mice
Procedure: as §1

haptoglobin protein [13] = assay: Liver haptoglobin protein (ELISA); assay type: in vivo, CD-1 mice; design: unit not given beside the values
Procedure: as §1

HO-1 protein [14] = assay: Cardiac HO-1 protein (ELISA); assay type: in vivo, CD-1 mice; details: 4 h after IV injection
Procedure: as §1

[15] = test system: glycerol model of rhabdomyolysis-induced AKI; assay: Glycerol model of rhabdomyolysis-induced AKI; assay type: in vivo, CD-1 mice; details: IV pretreatment 18 h before glycerol; 18 hours after glycerol
Procedure: Assessments of cytoresistance. Glycerol model of rhabdomyolysis-induced AKI. Twenty mice were divided into 4 equal groups (controls, mice treated with N-Mgb, SnPP, and mice treated with N-Mgb+SnPP tail vein injections) as described previously. 18 hours later, the mice were briefly anesthetized with isoflurane and immediately injected with 9 mL/kg of 50% glycerol, administered in equally divided doses into each hind limb. At 18 hours after glycerol injection, the mice were anesthetized with pentobarbital, the abdomen was opened, a blood sample for BUN and creatinine assessments was obtained from the vena cava, and the kidneys were resected. The control post-glycerol group and the N-Mgb+SnPP-pretreated glycerol group had kidney sections stained with H&E.
To assess whether the previously determined plasma and kidney HO-1 and haptoglobin levels correlated with degrees of cytoresistance, additional mice were injected with 0, 2.5, or 5 mg of N-Mgb […] of SnPP (n=3 mice per group). Eighteen hours later, all mice were subjected to the glycerol AKI model as described previously. Severities of AKI were determined 18 hours after glycerol injection by BUN and plasma creatinine analyses.
Calculations and statistics. All values are given as the mean […] standard error of the mean. Statistical comparisons were made by unpaired Student's t test. […]

haptoglobin protein [16] = assay: Cardiac haptoglobin protein (ELISA); assay type: in vivo, CD-1 mice
Procedure: as §1

haptoglobin mRNA [17] = assay: Liver haptoglobin mRNA (RT-PCR); assay type: in vivo, CD-1 mice
Procedure: as §1

[18] = Serum creatinine after 2 hr subcutaneous infusion of nitrited myoglobin + SnPP; assay type: in vivo, mice; details: 2 hr SC infusion 1, 3, 6, 12, or 25 mg/Kg + 1 μmole SnPP; 18 hrs later
Procedure: Mice were subjected to a 2 hr subcutaneous infusion of 1, 3, 6, 12, or 25 mg/Kg of nitrited myoglobin (holding SnPP at a constant dose of 1 μmole). Eighteen hrs later, potential renal injury was assessed by measuring serum creatinine concentrations.
An obvious concern by applying this prophylactic strategy to patients is potential renal and/or extrarenal toxicities. […] Furthermore, it was previously documented in a cell culture system that nitrite addition markedly reduces myoglobin's cytotoxic effects by 75% (unpublished data, 2014). To assess the potential in vivo margin of safety for N-Mgb+SnPP (see Supplemental FIGS.), the maximal amount of N-Mgb that could be given to mice before nephrotoxicity was observed was tested. Up to 25 times the employed N-Mgb dose (with a constant SnPP dose) could be administered (over 2 hours) without induction of nephrotoxicity (normal BUN and creatinine, 18 hours later).

HK-2 cells = assay: HK-2 cell injury by MTT assay; assay type: cell-based; details: 10 mg/ml, equimolar Na nitrite, 18 hr incubation
Procedure: HK-2 cells (a proximal tubule cell line derived from normal human kidney) were incubated in keratinocyte serum free medium either under normal (control) conditions or in the presence of 10 mg/mL horse skeletal muscle myoglobin or nitrited myoglobin (produced by equimolar Na nitrite addition to 10 mg/ml myoglobin). After 18 hr incubations, the severity of cell injury (% cell death) was assessed by MTT assay. Myoglobin induced 40% cell death (40% decrease in MTT cell uptake), compared to control incubated cells. Nitrite binding to myoglobin reduced cell death by 75%. Thus, nitrite binding is able to reduce myoglobin's cytotoxic effects.

IL-10 protein [19] = assay: Cardiac IL-10 protein (ELISA); assay type: in vivo, CD-1 mice
Procedure: as §1

haptoglobin mRNA [20] = assay: Kidney haptoglobin mRNA (RT-PCR); assay type: in vivo, CD-1 mice
Procedure: as §1

IL-10 mRNA [21] = assay: Kidney IL-10 mRNA (RT-PCR); assay type: in vivo, CD-1 mice
Procedure: as §1

[22] = 4 h after IV injection, N-Mgb 1 mg, SnPP 1 mmol [sic]

iron sucrose [FeS]
Severity of maleate-induced AKI (BUN/PCr), in words (maleate model of AKI): Neither SnPP alone nor FeS alone significantly altered the severity of renal injury
HO-1 protein increases (FIG. 21) (HO-1 protein [1]; 4 hrs and 18 hrs after IV injection): marked HO-1 protein increases within 4 hrs and persists for 18 hrs
Renal cortical HO-1 protein levels (HO-1 protein [1]; 18 hr time point): remained elevated at the 18 hr time point, particularly in the case of FeS administration
Ferritin heavy chain protein levels in kidney (ferritin heavy chain): strong ferritin inducer

B1: N-Mgb: horse myoglobin converted into a nitrited form by addition of equimolar sodium nitrite (protein, UniProt P68082 2-154, looked up)
Myoglobin: GLSDGEWQQVLNVWGKVEADIAGHGQEVLIRLFTGHPETLEKFDKFKHLKTEAEMKASEDLKKHGTVVLTALGGILKKKGHHEAELKPLAQSHATKHKIPIKYLEFISDAIIHVLHSKHPGDFGADAQGAMTKALELFRNDIAAKYKELGFQG
modifications: nitrite-modified
notes: horse myoglobin converted into a nitrited form by addition of equimolar sodium nitrite
Liver protein HO-1 (HO-1 protein [2]; 4 h after IV injection): 17 ± 2
Liver protein HO-1 (HO-1 protein [2]; 18 h after IV injection): 14.9 ± 0.3
Liver mRNA IL-10 (IL-10 mRNA [3]; 4 h after IV injection): 0.67 ± 0.46
Liver mRNA IL-10 (IL-10 mRNA [3]; 18 h after IV injection): 0.06 ± 0.02
Cardiac mRNA HO-1 (HO-1 mRNA [4]; 4 h after IV injection): 0.09 ± 0.01
Cardiac mRNA HO-1 (HO-1 mRNA [4]; 18 h after IV injection): 0.08 ± 0.01
Renal HO-1 protein increase, in words (HO-1 protein [5]; 18-hour time point, agent alone): only relatively small HO-1 protein increases
Kidney HO-1 protein (HO-1 protein [5]; [22]): 36.1 ± 2.9
Kidney protein HO-1 (HO-1 protein [5]; 18 h after IV injection): 30 ± 6
Kidney mRNA HO-1 (HO-1 mRNA [6]; [22]): 3.38 ± 0.38
Renal HO-1 mRNA increase, in words (HO-1 mRNA [6]; 4 hour, agent alone): only modest increases
Kidney mRNA cortex HO-1 (HO-1 mRNA [6]; 18 h after IV injection): 0.58 ± 0.18
Cardiac mRNA IL-10 (IL-10 mRNA [7]; 4 h after IV injection): 0.86 ± 0.11
Cardiac mRNA IL-10 (IL-10 mRNA [7]; 18 h after IV injection): 0.67 ± 0.10
Liver mRNA HO-1 (HO-1 mRNA [8]; 4 h after IV injection): 1.83 ± 0.33
Liver mRNA HO-1 (HO-1 mRNA [8]; 18 h after IV injection): 0.82 ± 0.07
Cardiac mRNA Haptoglobin (haptoglobin mRNA [9]; 4 h after IV injection): 0.75 ± 0.10
Cardiac mRNA Haptoglobin (haptoglobin mRNA [9]; 18 h after IV injection): 0.53 ± 0.21
Renal haptoglobin protein levels, in words (haptoglobin protein [10]; 18-hour time point, vs combination): comparably increased
Kidney Haptoglobin protein (haptoglobin protein [10]; [22]): 17.6 ± 1^
Kidney protein Haptoglobin (haptoglobin protein [10]; 18 h after IV injection): 183.8 ± 20.4
Kidney IL-10 protein (IL-10 protein [11]; [22]): 265 ± 54
Kidney protein IL-10 (IL-10 protein [11]; 18 h after IV injection): 292 ± 54
Renal IL-10 protein increase, in words (IL-10 protein [11]; 18 hours, agent alone): absence of IL-10 protein increases
Liver protein IL-10 (IL-10 protein [12]; 4 h after IV injection): 286 ± 32
Liver protein IL-10 (IL-10 protein [12]; 18 h after IV injection): 5988 ± 549
Liver protein Haptoglobin (haptoglobin protein [13]; 4 h after IV injection): 359.5 ± 39.6
Liver protein Haptoglobin (haptoglobin protein [13]; 18 h after IV injection): 358.8 ± 32.8
Cardiac protein HO-1 (HO-1 protein [14]): 1.64 ± 0.19
Protection against glycerol-induced AKI judged by BUN/creatinine levels [15]: modest protection
Cardiac protein Haptoglobin (haptoglobin protein [16]; 4 h after IV injection): 40.4 ± 8.6
Cardiac protein Haptoglobin (haptoglobin protein [16]; 18 h after IV injection): 249.6 ± 15.0
Liver mRNA Haptoglobin (haptoglobin mRNA [17]; 4 h after IV injection): 0.98 ± 0.1
Liver mRNA Haptoglobin (haptoglobin mRNA [17]; 18 h after IV injection): 0.91 ± 0.07
Serum creatinine concentration change [18]: No significant increase
Reduction of myoglobin-induced cell death by nitrite binding (HK-2 cells): 75%
Cardiac Protein IL-10 (IL-10 protein [19]; 4 h after IV injection): 21 ± 12
Cardiac protein IL-10 (L-10 [sic]) (IL-10 protein [19]; 18 h after IV injection): 14.5 ± 10^
Kidney mRNA Haptoglobin (haptoglobin mRNA [20]; [22]): 1.94 ± 0.31
Kidney mRNA cortex Haptoglobin (haptoglobin mRNA [20]; 18 h after IV injection): 0.24 ± 0.04
Impact on renal IL-10 mRNA levels, in words (IL-10 mRNA [21]; 4-hour time point, agent alone): either minimal or no impact
Kidney mRNA IL-10 (IL-10 mRNA [21]; [22]): 1.45 ± 0.6
Kidney mRNA cortex IL-10 (IL-10 mRNA [21]; 18 h after IV injection): 0.43 ± 0.10
